Experimental data from patent US20260022175A1 (Chugai, published 2026).
Where a chain is given by its changes, count along the chain named. Each block holds one binder with its values, some of them ahead of it.

Tests used:
[1] = biological target: T1, mCTLA4-His (mouse CTLA4 extracellular region linked with a His-tag) (mouse, UniProt P09793 36-161); test: SPR 37C, ATP 10 µM
[2] = biological target: T1, mCTLA4-His (mouse CTLA4 extracellular …); test: SPR 37C, ATP 100 µM
[3] = biological target: T1, mCTLA4-His (mouse CTLA4 extracellular …); test: SPR 37C, ATP 100 µM; remark: listed apart in the source
[4] = biological target: hFcγRIIIaV on hFcγRIIIaV-expressing Jurkat cells (human, UniProt P08637 17-254); test: cell-based or functional assay
Sequence of hFcγRIIIaV on hFcγRIIIaV-expressing Jurkat cells (P08637 17-254, form in doubt): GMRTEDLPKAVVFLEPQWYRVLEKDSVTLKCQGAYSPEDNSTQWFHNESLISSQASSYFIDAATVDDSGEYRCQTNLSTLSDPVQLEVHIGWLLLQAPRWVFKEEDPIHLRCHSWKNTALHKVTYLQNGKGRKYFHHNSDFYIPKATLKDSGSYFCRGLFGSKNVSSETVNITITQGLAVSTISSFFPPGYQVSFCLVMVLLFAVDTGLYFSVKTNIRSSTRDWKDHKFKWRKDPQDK

[5] = biological target: T2, human FcγRIa extracellular domain (human, UniProt P12314 16-292); test: SPR Biacore 8K+, antibody captured, FcγR as analyte, 1:1 Langmuir model;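 further: antibodies captured on a streptavidin chip through a biotinylated anti-human Fab kappa reagent, with FcγR extracellular domains injected in pH 7.4 phosphate buffer at 25 °C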
T2 construct: extracellular domain; also called hFcγR Ia; hFcγRIa
T2 sequence (P12314 16-292): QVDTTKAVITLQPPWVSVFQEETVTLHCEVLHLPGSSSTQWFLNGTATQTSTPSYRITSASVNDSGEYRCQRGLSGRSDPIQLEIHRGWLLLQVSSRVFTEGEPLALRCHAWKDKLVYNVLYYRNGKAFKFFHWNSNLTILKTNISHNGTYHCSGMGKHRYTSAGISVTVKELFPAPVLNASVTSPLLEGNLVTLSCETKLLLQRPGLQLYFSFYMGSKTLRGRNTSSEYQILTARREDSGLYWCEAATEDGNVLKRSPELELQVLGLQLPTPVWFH

[6] = biological target: T3, human FcγRIIa H extracellular domain (human, UniProt P12318 34-217); test: as above
T3 construct: extracellular domain; also called hFcγR IIa H
T3 sequence (looked up): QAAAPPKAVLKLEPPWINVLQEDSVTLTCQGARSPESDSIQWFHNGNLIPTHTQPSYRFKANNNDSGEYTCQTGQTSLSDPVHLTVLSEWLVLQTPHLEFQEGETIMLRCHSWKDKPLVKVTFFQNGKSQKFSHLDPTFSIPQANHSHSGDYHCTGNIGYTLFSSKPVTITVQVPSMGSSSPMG

[7] = biological target: T4, human FcγRIIa R extracellular domain (human, UniProt P12318 34-217); test: as above
T4 construct: extracellular domain; also called hFcγR IIa R
T4 sequence (looked up): T3 sequence (looked up) with H134R

[8] = biological target: T5, human FcγRIIIa F extracellular domain (human, UniProt P08637 17-208); test: SPR Biacore 8K+, antibody captured, FcγR as analyte, 1:1 Langmuir model; hFcγR IIIa F allotype
T5 construct: extracellular domain; also called hFcγR IIIa F
T5 sequence (P08637 17-208): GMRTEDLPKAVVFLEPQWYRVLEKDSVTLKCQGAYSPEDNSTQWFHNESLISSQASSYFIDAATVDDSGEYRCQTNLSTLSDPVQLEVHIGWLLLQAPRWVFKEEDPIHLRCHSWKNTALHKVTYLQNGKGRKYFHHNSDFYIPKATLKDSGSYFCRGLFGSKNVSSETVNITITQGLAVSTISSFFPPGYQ

[9] = biological target: T6, hFcγRIIaH on hFcγRIIaH-expressing Jurkat cells (human, UniProt P12318 34-317); test: cell-based or functional assay
T6 sequence (looked up): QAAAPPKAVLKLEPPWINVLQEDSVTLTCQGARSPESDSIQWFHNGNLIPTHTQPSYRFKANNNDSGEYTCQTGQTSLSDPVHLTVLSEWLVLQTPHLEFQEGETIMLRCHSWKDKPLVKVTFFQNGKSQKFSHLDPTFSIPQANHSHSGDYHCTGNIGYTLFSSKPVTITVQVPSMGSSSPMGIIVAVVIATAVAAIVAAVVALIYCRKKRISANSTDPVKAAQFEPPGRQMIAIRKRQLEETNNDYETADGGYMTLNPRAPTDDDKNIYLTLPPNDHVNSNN

[10] = biological target: T7, human FcγRIIb extracellular domain (human, UniProt P31994 43-217); test: SPR Biacore 8K+; KD of G1d divided by KD of this antibody;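 further: antibodies captured on an anti-Fab-kappa streptavidin chip, soluble FcγR ectodomains flowed over, KD by steady-state fit for FcγRIIb and Langmuir kinetic model for the other receptors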
T7 construct: extracellular domain; also called hFcγR IIb
T7 sequence (looked up): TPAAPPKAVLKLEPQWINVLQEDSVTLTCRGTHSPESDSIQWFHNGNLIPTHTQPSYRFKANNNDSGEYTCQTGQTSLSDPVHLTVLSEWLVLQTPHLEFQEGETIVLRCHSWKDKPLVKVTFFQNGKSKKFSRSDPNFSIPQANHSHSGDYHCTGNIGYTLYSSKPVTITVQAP

[11] = biological target: T2, human FcγRIa extracellular domain; test: as above
[12] = biological target: T5, human FcγRIIIa F extracellular domain; test: as above
[13] = biological target: T8, human FcγRIIIa V extracellular domain (human, UniProt P08637 17-208); test: as above
T8 construct: extracellular domain; also called hFcγR IIIa V
T8 sequence (P08637 17-208 F176V limits assumed): as the sequence (P08637 17-208) above, with F160V counted along it

[14] = biological target: T3, human FcγRIIa H extracellular domain; test: as above
[15] = biological target: T4, human FcγRIIa R extracellular domain; test: as above
[16] = biological target: T5, human FcγRIIIa F extracellular domain; test: SPR Biacore 8K+; KD for FcγRIIb divided by KD for this FcγR;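 further: antibodies captured on an anti-human Fab kappa SA chip with soluble human FcγR ectodomains flowed over, FcγRIIb KD from steady-state fit, other FcγR KD from Langmuir model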
[17] = biological target: T8, human FcγRIIIa V extracellular domain; test: as above
[18] = biological target: T3, human FcγRIIa H extracellular domain; test: as above
[19] = biological target: T4, human FcγRIIa R extracellular domain; test: as above
[20] = biological target: T7, human FcγRIIb extracellular domain; test: SPR Biacore 8K+, antibody captured, FcγR as analyte, steady state affinity model
[21] = biological target: T8, human FcγRIIIa V extracellular domain; test: SPR Biacore 8K+, antibody captured, FcγR as analyte, 1:1 Langmuir model; hFcγR IIIa V allotype
human CTLA4 [22] = biological target: T9, human CTLA4 (human); test: SPR, 37C, antibody captured by anti-mouse IgG, ATP 1 uM
T9 construct: also called hCTLA4; hCTLA4-His-BAP
T9 sequence (chain, as listed by the source limits assumed): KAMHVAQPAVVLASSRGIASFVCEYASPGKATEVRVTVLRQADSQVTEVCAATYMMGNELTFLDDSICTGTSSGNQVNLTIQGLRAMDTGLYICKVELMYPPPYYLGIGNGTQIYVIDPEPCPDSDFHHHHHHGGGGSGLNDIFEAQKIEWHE

human CTLA4 [23] = biological target: T9, human CTLA4; test: SPR, 37C, antibody captured by anti-mouse IgG, ATP 10 uM
human CTLA4 [24] = biological target: T9, human CTLA4; test: SPR, 37C, antibody captured by anti-mouse IgG, ATP 100 uM

Kd [1]: 84 nM
fold weaker than its binding ability to human CTLA4 [2]: ~2 times
Kd [3]: 16 nM
B1: 04H1208-G1m/04L1407-k0MT (antibody, human IgG1, kappa, V domains shown)
VH: EVQLVESGGGLVKPGGSLRLSCAASGFTFSSKTMNWVRQAPGKGLEWVSSISTRSGYIYYARSVKGRFTISRDNAKNSLYLQMNSLRAEDTAVYYCARYGKREDMLWVFDYWGQGTLVTVSS
VL: DIVMTQSPLSLPVTPGEPASISCDGPSTDVGDYNWVHWYQQKPGQAPRLLIYYTSSKPEGVPDRFSGSGSGTDFTLKISRVEAEDVGVYYCQTYAAPLGPTFGQGTKLEIKR

EC50 value (hFcγRIIIaV ADCC Reporter Bioassay, Hepa1-6/hEREG target cells) [4]: 3.7 ng/mL
Kd [5]: 0.0145 nM
Kd [6]: 68.6 nM
Kd [7]: 67 nM
Kd [8]: 66.1 nM
EC50 value (hFcγRIIaH ADCP Reporter Bioassay, Hepa1-6/hEREG target cells) [9]: 14.9 ng/mL
Relative value to KD between G1d and hFcgRs [10]: 8
Relative value to KD between G1d and hFcgRs [11]: 6.2
Relative value to KD between G1d and hFcgRs [12]: 44.7
Relative value to KD between G1d and hFcgRs [13]: 15.1
Relative value to KD between G1d and hFcgRs [14]: 16.4
Relative value to KD between G1d and hFcgRs [15]: 24.7
A/I ratio (KD for FcγRIIb divided by KD for each FcγR) [16]: 18.9
A/I ratio (KD for FcγRIIb divided by KD for each FcγR) [17]: 52.6
A/I ratio (KD for FcγRIIb divided by KD for each FcγR) [18]: 18.2
A/I ratio (KD for FcγRIIb divided by KD for each FcγR) [19]: 18.6
Kd [20]: 1250 nM
Kd [21]: 23.8 nM
B2: H240-Kn037/L73-k0//H240-Hl036/L73-k0 (antibody, human IgG1, kappa)
heavy 1: QDQLVQSGAEVKKPGASVKVSCKASGFNIKDTYIQWVRQAPGQGLEWMGRIDPLRKQTKYREKFEGRVTITADTSTNTAYMELSSLRSEDTAVYYCVRSGREFDYWGQGTLVTVSSASTKGPSVFPLAPSSKSTSGGTAALGCLVKDYFPEPVTVSWNSGALTSGVHTFPAVLQSSGLYSLSSVVTVPSSSLGTQTYICNVNHKPSNTKVDKKVEPKSCDKTHTCPPCPAPELLAGPDVFLFPPKPKDTLMISRTPEVTCVVVDVSHEDPEVKFNWYVDGVEVHNAKTKPREEQYNSTYRVVSVLTVLHQDWLNGKEYKCKVSNKALPAPEEKTISKAKGQPREPQVCTLPPSRDELTKNQVSLWCLVKGFYPSDIAVEWESNGQPENNYKTTPPVLDSDGSFFLYSKLTVDKSRWQQGNVFSCSVMHEALHNHYTQKSLSLSP
heavy 2: B2 heavy 1 with C348Y, D355C, W365S, L367A, Y406V
light: DIQMTQSPSSLSASVGDRVTITCRASQDIHKYIAWYQQKPGQAPRLLIQYTSTLQPGVPSRFSGSGSGTDYTFTISSLQPEDIATYYCLQYEQLRTFGGGTKVEIKRTVAAPSVFIFPPSDEQLKSGTASVVCLLNNFYPREAKVQWKVDNALQSGNSQESVTEQDSKDSTYSLSSTLTLSKADYEKHKVYACEVTHQGLSSPVTKSFNRGEC
notes: also called EGL-GASDIE; GASDIE

Kd (human CTLA4 [22]): 51 nM
Kd (human CTLA4 [23]): 18 nM
Kd (human CTLA4 [24]): 8.9 nM
B3: 04H1389-mFa55/04L1305-mk1 (antibody, mouse IgG2a, kappa)
heavy: EVQLVESGGGLVKPGGSLRLSCAASGFTFSSKTMNWVRQAPGKGLEWVSSISTQSHYIYYAESVKGRFTISRDNAKNSLYLQMNSLRAEDTAVYYCARYGKREDMLWVFDYWGQGTLVTVSSAKTTAPSVYPLAPVCGDTTGSSVTLGCLVKGYFPEPVTLTWNSGSLSSGVHTFPAVLQSDLYTLSSSVTVTSSTWPSQSITCNVAHPASSTKVDKKIEPRGPTIKPCPPCKCPAPNLLGGPDVFIFPPKIKDVLMISLSPIVTCVVVDVSEDDPDVQISWFVNNVEVHTAQTQTHREDYNSTLRVVSALPIQHQDWMSGKEFKCKVNNKDLPAPIERTISKPKGSVRAPQVYVLPPPEEEMTKKQVTLTCMVTDFMPEDIYVEWTNNGKTELNYKNTEPVLDSDGSYFMYSKLRVEKKNWVERNSYSCSVVHEGLHNHHTTKSFSRTPGK
light: DIVMTQSPLSLPVTPGEPASISCDGPSTGVGDYNYVHWYQQKPGQAPRLLIYFTSKKPSGVPDRFSGSGSGTDFTLKISRVEAEDVGVYYCQTYAAPLGPMFGQGTKLEIKRADAAPTVSIFPPSSEQLTSGGASVVCFLNNFYPKDINVKWKIDGSERQNGVLNSWTDQDSKDSTYSMSSTLTLTKDEYERHNSYTCEATHKTSTSPIVKSFNRNEC
notes: Mouse constant regions mFa55 and mk1; also called SW1389-mFa55
